Consider two substances from paper doi:10.1101/2022.05.05.490787.

Where “and” joins values, the source holds several entries; their conditions need not be identical. Identical values can stand only once.

The target of experiment [1] is HA-Cdt1 phosphomimetic (2E3D) (human) (UniProt Q9H211). The experiment can be described thus: co-IP.
The target in experiment [2] is GFP-tagged Cdt1 deletion fragment 92-410 (human) (UniProt Q9H211). The experiment can be described thus: BLI. (In general: BLI is a label-free optical method that tracks binding on a fibre tip over time.)
For experiment [3], the target named is GFP-Cdt1^2E3D (human) (UniProt Q9H211). The experiment can be described thus: BLI.
For experiment [4], the target named is GFP-tagged Cdt1 (92-546 a. a.) (human) (UniProt Q9H211). The experiment can be described thus: BLI.
Experiment [5] has as its target GFP-tagged Cdt1 deletion fragment 410-546 (human) (UniProt Q9H211). The experiment can be described thus: BLI.

As to “SKA1 (endogenous) (from UniProt Q96BD8 1-255) (natural protein)”, the % reduction of co-precipitated Ska1 against Cdt1-WT in experiment [1] was 50% and 55%.

The term Kd denotes the free concentration of one partner at which half of the binding sites on the other are occupied at equilibrium, for simple one-to-one binding. The low end stands for higher affinity, the high end for lower affinity. Regarding “Ska1 complex (analyte of the BLI experiments) (from UniProt Q96BD8;Q8WVK7)”, the Kd was determined as 220 nM in experiment [2], 185 nM in experiment [3], 70 nM in experiment [4] and 360 nM in experiment [5].
